The values below come from patent US8034783B2, “Prodomain modulators of ADAM 10” (Biozyme, Inc., priority 2006, dated 2011).

Experiment [1] addresses T1, ADAM 8 (mouse) catalytic domain (Mus musculus, UniProt Q05910).
T1 construct: The ADAM 8 catalytic domain was expressed and purified from E. coli as described (22); made in house; host or cells: E. coli
T1 sequence (Q05910 196-395 limits assumed): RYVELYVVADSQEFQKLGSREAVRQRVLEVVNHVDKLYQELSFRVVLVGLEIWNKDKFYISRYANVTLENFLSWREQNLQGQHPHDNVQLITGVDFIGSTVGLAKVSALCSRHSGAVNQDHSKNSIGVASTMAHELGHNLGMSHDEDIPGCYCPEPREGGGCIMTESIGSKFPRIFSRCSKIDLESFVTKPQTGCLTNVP
Briefly: Inhibition assay with ADAM 8 catalytic domain. The class given is biochemical. The conditions noted are these: fluorescamine assay; read-out: inhibition constant, ADAM 8 (mouse). The protocol:
Inhibition assays with ADAM 8. The ADAM 8 catalytic domain was expressed and purified from E. coli as described (22). A substrate based on the L-selectin cleavage site, Dnp-INorIeuQKLDKSFSMIKE-NH2 (SEQ ID NO 20), was used to monitor enzyme activity with a fluorescamine assay. From a concentrated 50 mM solution in DMSO, the substrate was diluted 1:500 in 25 mM HEPES, pH 8.0, 0.0006% Brij-35. To 100 μl of diluted substrate was added either 5 μl of buffer (Tris, pH 8.0, 150 mM KCl) or 5 μl of ADAM10 prodomain (1-10 μM). Zero time points were taken by diluting 12.5 μl of the reaction mixture into 100 μl of fluorescamine buffer (50 mM HEPES, pH 8.0, 0.2 M NaCl, 0.01 M CaCl2, 0.01% Brij-35) in a 96-well black-coated plate. Before measuring fluorescence, 3 μl of a 1% solution of fluorescamine in DMSO was added to each well. The plate was allowed to incubate for 10 min in the dark before measuring fluorescence (excitation wavelength at 390 nm, emission wavelength at 485 nm). For assays with TACE and ADAM8 prodomains, a fluorescent substrate was used to monitor activity at concentrations of prodomains ranging from 1-4.7 μM.
Calculation of inhibition constants. The amount of activity was calculated by subtracting the ADAM 10 prodomain control from the ADAM 10 prodomain with enzyme. […]

The target of experiment [2] is T2, human ADAM 9 catalytic/disintegrin domains (Homo sapiens, UniProt Q13443).
T2 construct: human ADAM 9 catalytic/disintegrin domains activity; purchased R & D Systems (Minneapolis, Minn., USA)
T2 sequence (Q13443 206-697 limits assumed): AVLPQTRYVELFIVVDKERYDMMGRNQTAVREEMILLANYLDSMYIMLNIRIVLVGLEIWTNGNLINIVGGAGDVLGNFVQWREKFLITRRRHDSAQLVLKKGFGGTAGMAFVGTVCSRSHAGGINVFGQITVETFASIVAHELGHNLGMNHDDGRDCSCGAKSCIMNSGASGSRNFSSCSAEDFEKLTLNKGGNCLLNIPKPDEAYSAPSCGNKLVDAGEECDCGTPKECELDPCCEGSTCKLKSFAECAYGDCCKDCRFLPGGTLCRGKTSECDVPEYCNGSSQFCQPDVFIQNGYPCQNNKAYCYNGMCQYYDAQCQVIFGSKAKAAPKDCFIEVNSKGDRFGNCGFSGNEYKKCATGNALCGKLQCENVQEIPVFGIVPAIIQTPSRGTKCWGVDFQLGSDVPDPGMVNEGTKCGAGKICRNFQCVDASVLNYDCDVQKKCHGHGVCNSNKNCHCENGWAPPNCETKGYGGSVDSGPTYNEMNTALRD
Put plainly: Inhibition assay with ADAM 9. The conditions noted are these: read-out: inhibition constant, ADAM 9 (human). The class given is biochemical. The protocol:
Inhibition assays with ADAM 9. The fluorescent substrate, Dabcyl-PchaGC(Me)HAK(Fam)-NH2 (SEQ ID NO 19) (10 μM), in a buffer containing 25 mM Tris, pH 8.0, 0.0006% Brij-35, was used to measure human ADAM 9 catalytic/disintegrin domains activity. The ADAM 9 was provided as a 0.1 μg/μl stock solution, from which 3 μl was added to start the reaction in the absence or presence of ADAM10 prodomain (78-5000 nM). Fluorescence intensities were measured every 10-20 minutes at excitation and emission wavelengths of 485 and 530 nm respectively.
Calculation of inhibition constants. The amount of activity was calculated by subtracting the ADAM 10 prodomain control from the ADAM 10 prodomain with enzyme. All inhibition assays were performed at room temperature and the data fit to the following equation using Sigma Plot software:
[formula] where If is fractional inhibition, I is the inhibitor concentration and Ki is the inhibition constant.

For experiment [3], the target named is T3, mouse ADAM 10 catalytic domain (Mus musculus, UniProt O35598).
T3 construct: mouse ADAM 10 catalytic domain (unpublished observation)
T3 sequence (O35598 221-457 limits assumed): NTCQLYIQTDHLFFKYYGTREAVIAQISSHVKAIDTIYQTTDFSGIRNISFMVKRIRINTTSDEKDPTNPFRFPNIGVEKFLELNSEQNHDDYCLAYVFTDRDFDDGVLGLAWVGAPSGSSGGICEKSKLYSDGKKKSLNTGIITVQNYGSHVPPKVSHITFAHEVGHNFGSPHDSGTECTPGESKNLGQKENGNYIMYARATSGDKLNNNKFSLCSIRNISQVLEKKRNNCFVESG
Briefly: Inhibition of mouse ADAM 10 catalytic domain (unpublished observation). Type of experiment: biochemical. The protocol:
Mechanism of ADAM 10 prodomain inhibition. For metalloproteinases that exist as zymogens, the presence of a cysteine in their prodomains is often necessary for inhibition of catalytic activity. […] For some of the ADAM family members, the cysteine is required for efficient inhibition of the enzyme. Therefore, a test was conducted to determine whether the cysteine in the putative cysteine switch of ADAM10 prodomain affected the potency of inhibition by preparing a C-terminal His tag construct with the only cysteine mutated to serine. […] The wild type prodomains (23-213), containing either the N- or C-terminal His tags, were both efficient inhibitors of ADAM10 (Table II), with inhibition constants of 75 and 48 nM respectively.

For experiment [4], the system named is CD23 shedding in Ramos cells. Briefly: CD23 release from Ramos cells, soluble CD23 ELISA. Type of experiment: cell-based. The conditions noted are these: 150-600 nM, IL-4, 24 hr, FIG. 2A. On the procedure:
(§1) ADAM 10 prodomains were also tested in assays to determine if ADAM 10 protein functions as a CD23 sheddase. Cells (100,000 per well) were seeded in round-bottomed 96-well plates (Sarstedt, Newton, N.C.) in 0.2 ml of media supplemented with IL-4 with inhibitors (A10 23-215 150-600 nM, GM6001 10-50 μM, TAPI-2 10-50 μM, or TIMPs 250 nM) or vehicle controls (A10 23-215 buffer: 25 mM NaH2PO4 pH 7.0, 125 mM KCl, 75 mM NaCl 20% glycerol, PBS, or dimethyl sulfoxide). Cells were cultured for 24 hr. The conditioned medium was harvested by centrifugation (2000×g, 15 min). The conditioned medium was assayed by ELISA for soluble CD23 according to the manufacturers' instructions (BD Biosciences, Invitrogen).

Experiment [5] deals with CD23 shedding in U937 cells. Put plainly: CD23 release from U937 cells, soluble CD23 ELISA. The class given is cell-based. The conditions noted are these: 150-600 nM, IL-4, 24 hr, FIG. 2B. On the procedure:
as §1

B1: C173S ProADAM 10 23-213 (C-terminal His tag): mouse ADAM 10 prodomain 23-213 with cysteine 173 mutated to serine, C-terminal His tag (protein, UniProt O35598 23-213, looked up, variant C173S)
chain: NPLNKYIRHYEGLSYNVDSLHQKHQRAKRAVSHEDQFLLLDFHAHGRQFNLRMKRDTSLFSDEFKVETSNKVLDYDTSHIYTGHIYGEEGSFSHGSVIDGRFEGFIKTRGGTFYIEPAERYIKDRILPFHSVIYHEDDINYPHKYGPQGGSADHSVFERMRKYQMTGVEEGARAHPEKHAASSGPELLRKK
modifications: pro-form C-terminal His tag
notes: mouse ADAM 10 prodomain 23-213 with cysteine 173 mutated to serine, C-terminal His tag
B1: the Ki was more than 10 µM in experiment [1], more than 1 µM in experiment [2] and 0.017 ± 0.01 µM in experiment [3]. For the same molecule, in experiment [4], the “inhibition of CD23 shedding, Ramos cells” value is “about 30%”. Moreover, the “inhibition of CD23 shedding, U937 cells” value in experiment [5] is “about 30%”.
